B1: C-terminally TAP-tagged full-length Myo1 (natural protein, S. cerevisiae, UniProt P08964 1-1928, looked up)
chain: MTGGQSCSSNMIVWIPDEKEVFVKGELMSTDINKNKFTGQEEQIGIVHPLDSTEVSNLVQVRISDVFPVNPSTFDKVENMSELTHLNEPSVLYNLEKRYDCDLIYTYSGLFLVAINPYHNLNLYSEDHINLYHNKHNRLSKSRLDENSHEKLPPHIFAIAEEAYENLLSEGKDQSILVTGESGAGKTENTKKILQYLASITSGSPSNIAPVSGSSIVESFEMKILQSNPILESFGNAQTVRNNNSSRFGKFIKIEFNEHGMINGAHIEWYLLEKSRIVHQNSKERNYHIFYQLLSGLDDSELKNLRLKSRNVKDYKILSNSNQDIIPGINDVENFKELLSALNIIGFSKDQIRWIFQVVAIILLIGNIEFVSDRAEQASFKNDVSAICSNLGVDEKDFQTAILRPRSKAGKEWVSQSKNSQQAKFILNALSRNLYERLFGYIVDMINKNLDHGSATLNYIGLLDIAGFEIFENNSFEQLCINYTNEKLQQFFNNHMFVLEQSEYLKENIQWDYIDYGKDLQLTIDLIESKGPPTGVLPLLDEEAVLPKSTDESFYSKLISTWDQNSSKFKRSRLKNGFILKHYAGDVEYTVEGWLSKNKDPLNDNLLSLLSSSQNDIISKLFQPEGEKSSSAGVEANISNQEVKKSARTSTFKTTSSRHREQQITLLNQLASTHPHFVRCIIPNNVKKVKTFNRRLILDQLRCNGVLEGIRLAREGYPNRIAFQEFFQRYRILYPENSTTTTFSSKLKASTKQNCEFLLTSLQLDTKVYKIGNTKLFFKAGVLADLEKQKDVKLNNIMIKLTATIRGYTVRKEITYHLQKLKKTRVIGNTFRLYNRLVKEDPWFNLFIRIKPLLTSSNDMTRTKKFNEQINKLKNDLQEMESKKKFLEEKNQKTVNELENTQDLLNQEKENLRKNESLLNRVKTSSETLQKQFDDLVSEKDEISREKLEVAQNLEEAHQKIQGLQETIREREATLEKLHSKNNELIKQISDLNCDISKEQSSQSLIKESKLKLENEIKRLKDVINSKEEEIKSFNDKLSSSEEDLDIKLVTLEKNCNIAMSRLQSLVTENSDLRSKNENFKKEKAALNNQLKNKESELLKMKEKIDNHKKELATFSKQRDDAVSEHGKITAELKETRIQLTEYKSNYQKIKEEYSNFQRETKEQEQKKRNSLVESLNDSKIKELEARLSQEISLNQYLNKRISGNSVETNISSTRRSTSYSDDPLDKEDIIKKYYDLQLAFTEITRNLENEIEEKKNLISRLRFTETRLASSSFEDQKIKAQMKKLKKLIQDMDPSIPLDSILNEPLDNCPDKESDINKLMLEVDYLKRQLDIETRAHYDAENAISALHSKFRKIQGESSLSSSDIYKLKFEASEERVKSLEDKLKTMPLRDRTNLPVGDIIKNRDSISKYEEEIRYYKLENYKLQEILNESNGKLSQLTLDLRQSKSKEALLSEQLDRLQKDLESTERQKELLSSTIKQQKQQFENCMDDLQGNELRLREHIHALKQAEEDVKNMASIIEKLKTQNKQKEKLIWEREMERNDSDMQLQETLLELKRVQDVKKILSDDLAHLKERLSAVEDRSQYTDEINRLKEELNCSLKAETNLKKEFATLKYKLETSTNDSEAKISDLLKQLDHYTKVVEMLNNEKDAISLAEKELYQKYEALNTECESLKGKIVSLTKIKQELESDLNQKTDALQISNAALSSSTQKNKEITEKIKYLEETLQLQMEQNSRNGELVKTLQASCNGYKDKFDDEKQKNIDLYEENQTLQKLNTDLQLQLKNLHERLSDTTEKNAWLSKIHELENMVSLETDLKYEEMKKNKSLERAVEELQTKNSQQTDVIELANKNRSEFEEATLKYEAQISDLEKYISQQELEMKKSIRDNSSYRDKVQEMAQEIEFWKSRYESTMIGSKNIDSNNAQSKIFS
B2: C-terminally TAP-tagged Myo1 with a deletion of the TD2 region (natural protein, S. cerevisiae, UniProt P08964 1-1928, looked up)
chain: MTGGQSCSSNMIVWIPDEKEVFVKGELMSTDINKNKFTGQEEQIGIVHPLDSTEVSNLVQVRISDVFPVNPSTFDKVENMSELTHLNEPSVLYNLEKRYDCDLIYTYSGLFLVAINPYHNLNLYSEDHINLYHNKHNRLSKSRLDENSHEKLPPHIFAIAEEAYENLLSEGKDQSILVTGESGAGKTENTKKILQYLASITSGSPSNIAPVSGSSIVESFEMKILQSNPILESFGNAQTVRNNNSSRFGKFIKIEFNEHGMINGAHIEWYLLEKSRIVHQNSKERNYHIFYQLLSGLDDSELKNLRLKSRNVKDYKILSNSNQDIIPGINDVENFKELLSALNIIGFSKDQIRWIFQVVAIILLIGNIEFVSDRAEQASFKNDVSAICSNLGVDEKDFQTAILRPRSKAGKEWVSQSKNSQQAKFILNALSRNLYERLFGYIVDMINKNLDHGSATLNYIGLLDIAGFEIFENNSFEQLCINYTNEKLQQFFNNHMFVLEQSEYLKENIQWDYIDYGKDLQLTIDLIESKGPPTGVLPLLDEEAVLPKSTDESFYSKLISTWDQNSSKFKRSRLKNGFILKHYAGDVEYTVEGWLSKNKDPLNDNLLSLLSSSQNDIISKLFQPEGEKSSSAGVEANISNQEVKKSARTSTFKTTSSRHREQQITLLNQLASTHPHFVRCIIPNNVKKVKTFNRRLILDQLRCNGVLEGIRLAREGYPNRIAFQEFFQRYRILYPENSTTTTFSSKLKASTKQNCEFLLTSLQLDTKVYKIGNTKLFFKAGVLADLEKQKDVKLNNIMIKLTATIRGYTVRKEITYHLQKLKKTRVIGNTFRLYNRLVKEDPWFNLFIRIKPLLTSSNDMTRTKKFNEQINKLKNDLQEMESKKKFLEEKNQKTVNELENTQDLLNQEKENLRKNESLLNRVKTSSETLQKQFDDLVSEKDEISREKLEVAQNLEEAHQKIQGLQETIREREATLEKLHSKNNELIKQISDLNCDISKEQSSQSLIKESKLKLENEIKRLKDVINSKEEEIKSFNDKLSSSEEDLDIKLVTLEKNCNIAMSRLQSLVTENSDLRSKNENFKKEKAALNNQLKNKESELLKMKEKIDNHKKELATFSKQRDDAVSEHGKITAELKETRIQLTEYKSNYQKIKEEYSNFQRETKEQEQKKRNSLVESLNDSKIKELEARLSQEISLNQYLNKRISGNSVETNISSTRRSTSYSDDVGDIIKNRDSISKYEEEIRYYKLENYKLQEILNESNGKLSQLTLDLRQSKSKEALLSEQLDRLQKDLESTERQKELLSSTIKQQKQQFENCMDDLQGNELRLREHIHALKQAEEDVKNMASIIEKLKTQNKQKEKLIWEREMERNDSDMQLQETLLELKRVQDVKKILSDDLAHLKERLSAVEDRSQYTDEINRLKEELNCSLKAETNLKKEFATLKYKLETSTNDSEAKISDLLKQLDHYTKVVEMLNNEKDAISLAEKELYQKYEALNTECESLKGKIVSLTKIKQELESDLNQKTDALQISNAALSSSTQKNKEITEKIKYLEETLQLQMEQNSRNGELVKTLQASCNGYKDKFDDEKQKNIDLYEENQTLQKLNTDLQLQLKNLHERLSDTTEKNAWLSKIHELENMVSLETDLKYEEMKKNKSLERAVEELQTKNSQQTDVIELANKNRSEFEEATLKYEAQISDLEKYISQQELEMKKSIRDNSSYRDKVQEMAQEIEFWKSRYESTMIGSKNIDSNNAQSKIFS
B3: MBP-Myo1-tail-TD2Δ (domain or fragment, S. cerevisiae, UniProt P08964 856-1928, looked up)
chain: SSNDMTRTKKFNEQINKLKNDLQEMESKKKFLEEKNQKTVNELENTQDLLNQEKENLRKNESLLNRVKTSSETLQKQFDDLVSEKDEISREKLEVAQNLEEAHQKIQGLQETIREREATLEKLHSKNNELIKQISDLNCDISKEQSSQSLIKESKLKLENEIKRLKDVINSKEEEIKSFNDKLSSSEEDLDIKLVTLEKNCNIAMSRLQSLVTENSDLRSKNENFKKEKAALNNQLKNKESELLKMKEKIDNHKKELATFSKQRDDAVSEHGKITAELKETRIQLTEYKSNYQKIKEEYSNFQRETKEQEQKKRNSLVESLNDSKIKELEARLSQEISLNQYLNKRISGNSVETNISSTRRSTSYSDDVGDIIKNRDSISKYEEEIRYYKLENYKLQEILNESNGKLSQLTLDLRQSKSKEALLSEQLDRLQKDLESTERQKELLSSTIKQQKQQFENCMDDLQGNELRLREHIHALKQAEEDVKNMASIIEKLKTQNKQKEKLIWEREMERNDSDMQLQETLLELKRVQDVKKILSDDLAHLKERLSAVEDRSQYTDEINRLKEELNCSLKAETNLKKEFATLKYKLETSTNDSEAKISDLLKQLDHYTKVVEMLNNEKDAISLAEKELYQKYEALNTECESLKGKIVSLTKIKQELESDLNQKTDALQISNAALSSSTQKNKEITEKIKYLEETLQLQMEQNSRNGELVKTLQASCNGYKDKFDDEKQKNIDLYEENQTLQKLNTDLQLQLKNLHERLSDTTEKNAWLSKIHELENMVSLETDLKYEEMKKNKSLERAVEELQTKNSQQTDVIELANKNRSEFEEATLKYEAQISDLEKYISQQELEMKKSIRDNSSYRDKVQEMAQEIEFWKSRYESTMIGSKNIDSNNAQSKIFS

Biological target: the molecule itself
Experiment: rotary-shadowing EM

Protein	stoichiometry N
B1	2
B2	2
B3	2

— publication PMC3010076 (The Journal of Cell Biology, 2010)
